This note sets out measurements from patent publication US20140242095A1.

The target in the test is human SIRPα V1 expressed on cells (NOR mouse macrophages or CHO cells) (human) (UniProt P78324). The experiment in a line: cell-based binding assay (NOR mouse macrophages). Also noted: unit not given beside the values. The following applies: Fc fusion.
Chain of human SIRPα V1 expressed on cells (NOR mouse macrophages or CHO cells) (human) (P78324 31-504): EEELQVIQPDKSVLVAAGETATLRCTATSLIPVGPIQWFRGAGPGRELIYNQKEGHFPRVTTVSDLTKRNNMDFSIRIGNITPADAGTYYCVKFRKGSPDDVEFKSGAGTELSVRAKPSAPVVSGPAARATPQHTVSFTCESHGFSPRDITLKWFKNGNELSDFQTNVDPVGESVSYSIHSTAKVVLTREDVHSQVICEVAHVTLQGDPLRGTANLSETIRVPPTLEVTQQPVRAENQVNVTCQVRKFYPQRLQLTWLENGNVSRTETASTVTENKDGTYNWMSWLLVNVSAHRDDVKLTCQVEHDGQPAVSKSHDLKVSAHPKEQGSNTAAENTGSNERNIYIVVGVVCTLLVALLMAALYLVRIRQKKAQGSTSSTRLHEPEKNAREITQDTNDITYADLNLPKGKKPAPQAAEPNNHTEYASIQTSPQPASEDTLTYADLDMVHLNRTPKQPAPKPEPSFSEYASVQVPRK

Chain of human CD47-Fc fusion protein (Q08722 19-141): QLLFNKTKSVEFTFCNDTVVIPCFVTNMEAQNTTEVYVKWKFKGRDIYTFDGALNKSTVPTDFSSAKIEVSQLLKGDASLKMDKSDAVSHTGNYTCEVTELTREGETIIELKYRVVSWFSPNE

Take “human CD47-Fc fusion protein (from UniProt Q08722 19-141)”: the Kd is 8.7 ?.
